The record followed here is the RNAGym collection of RNA variant scans (doi:10.1021/acssynbio.7b00057).

B1: Pistol ribozyme (parent)
chain: GGGUCGUUGUUCCAUAAUCGCGUGGAUAUGGCACGCAAGUUUCUACCGGGCACCGUAAAUGUCCGACUGGAGCCGUUCGGGCGGCUAUAAACAGACCUCAGGCCCGAAGCGUGGCGGCACCUGCCGCCGGUGGUAAAAAAGAUCGGAAGAGCACACGUCU

Variants of B1 are the subject of the data set. The experiment in a line: aptazyme ON/OFF ratio, guanine; higher = stronger switching; co-transcriptional cleavage with and without guanine.
For the variant U7G U10A U11A C13A, the “aptazyme ON/OFF ratio” value was 1.14.

For the variant U7G U10A U11A C13U, the “aptazyme ON/OFF ratio” value was 1.11.

Regarding U7G U10A U11A C13G, the “aptazyme ON/OFF ratio” value amounted to 1.11.

As for U8A G9A U10A U11A C12A C13U, the “aptazyme ON/OFF ratio” value was found to be 1.27.

U8A G9A U10A U11A C12A C13G: the “aptazyme ON/OFF ratio” value stood at 1.1.

As to U8A G9A U10A U11A C12A C13A, the “aptazyme ON/OFF ratio” value is 1.29.

As to U7G U10G C13A, the “aptazyme ON/OFF ratio” value worked out at 1.29.

For U7G U10G C13G, the “aptazyme ON/OFF ratio” value is 1.13.

On to U7G U10G C13U, for which the “aptazyme ON/OFF ratio” value is 1.17.

Turning to U7G U10C U11A C12U, the “aptazyme ON/OFF ratio” value came to 1.2.

On to U7G U10C U11A C12G, for which the “aptazyme ON/OFF ratio” value worked out at 1.18.

Consider U7G U10C U11A C12A, for which the “aptazyme ON/OFF ratio” value worked out at 1.18.

Consider U8A G9A C12G C13A, for which the “aptazyme ON/OFF ratio” value turned out to be 1.36.

As to U8A G9A C12G C13U, the “aptazyme ON/OFF ratio” value came to 1.18.

Consider U8A G9A C12G C13G, for which the “aptazyme ON/OFF ratio” value turned out to be 1.2.

For the variant U7G U10A U11C C13A, the “aptazyme ON/OFF ratio” value worked out at 1.04.

On to U7G U10A U11C C13U, for which the “aptazyme ON/OFF ratio” value came out at 1.02.

Regarding U7G U10A U11C C13G, the “aptazyme ON/OFF ratio” value is 1.02.

U7G U8G U11C C12A: the “aptazyme ON/OFF ratio” value was 1.31.

Take U7G U8G U11C C12U: the “aptazyme ON/OFF ratio” value was 1.37.

In the case of U7G U8G U11C C12G, the “aptazyme ON/OFF ratio” value was 1.15.

Regarding U7G U10G C12U C13G, the “aptazyme ON/OFF ratio” value worked out at 1.24.

Regarding U7G U10G C12U C13U, the “aptazyme ON/OFF ratio” value stood at 1.43.

In the case of U7G U10G C12U C13A, the “aptazyme ON/OFF ratio” value was 1.18.

With U7G U10C C12A C13G, the “aptazyme ON/OFF ratio” value was found to be 1.1.

For the variant U7G U10C C12A C13U, the “aptazyme ON/OFF ratio” value came out at 1.12.

Consider U7G U10C C12A C13A, for which the “aptazyme ON/OFF ratio” value was found to be 1.1.

For the variant U8A G9A C13A, the “aptazyme ON/OFF ratio” value is 1.19.

With U8A G9A C13G, the “aptazyme ON/OFF ratio” value stood at 1.12.

U8A G9A C13U: the “aptazyme ON/OFF ratio” value is 1.23.

Take U7G U10A U11C C12U: the “aptazyme ON/OFF ratio” value was determined as 1.05.

U7G U10A U11C C12G: the “aptazyme ON/OFF ratio” value came out at 1.3.

As to U7G U10A U11C C12A, the “aptazyme ON/OFF ratio” value is 1.16.

Regarding U7G U10A U11G C12U C13G, the “aptazyme ON/OFF ratio” value is 1.22.

In the case of U7G U10A U11G C12U C13A, the “aptazyme ON/OFF ratio” value was determined as 1.17.

Regarding U7G U10A U11G C12U C13U, the “aptazyme ON/OFF ratio” value came to 1.28.

U7G U10C C13U: the “aptazyme ON/OFF ratio” value came out at 1.03.

As to U7G U10C C13G, the “aptazyme ON/OFF ratio” value amounted to 1.04.

U7G U10C C13A: the “aptazyme ON/OFF ratio” value amounted to 1.04.

As for U7G U10C U11A C12A C13A, the “aptazyme ON/OFF ratio” value was found to be 1.17.

As for U7G U10C U11A C12A C13G, the “aptazyme ON/OFF ratio” value was determined as 1.06.

For U7G U10C U11A C12A C13U, the “aptazyme ON/OFF ratio” value is 1.16.

With U7G U10C U11A, the “aptazyme ON/OFF ratio” value was 1.32.

With U7G U10C U11G, the “aptazyme ON/OFF ratio” value was 1.22.

Regarding U7G U10C U11C, the “aptazyme ON/OFF ratio” value came to 1.07.

Take U7G U10A U11C C12A C13A: the “aptazyme ON/OFF ratio” value is 1.12.

With U7G U10A U11C C12A C13U, the “aptazyme ON/OFF ratio” value worked out at 1.18.

For U7G U10A U11C C12A C13G, the “aptazyme ON/OFF ratio” value was 1.2.

Regarding U7G U10A C12U C13U, the “aptazyme ON/OFF ratio” value amounted to 1.25.

Take U7G U10A C12U C13A: the “aptazyme ON/OFF ratio” value amounted to 1.2.

For the variant U7G U10A C12U C13G, the “aptazyme ON/OFF ratio” value was 1.22.

As for U8A G9A U10A C12U C13A, the “aptazyme ON/OFF ratio” value came out at 1.2.

For the variant U8A G9A U10A C12U C13U, the “aptazyme ON/OFF ratio” value was 1.33.

In the case of U8A G9A U10A C12U C13G, the “aptazyme ON/OFF ratio” value stood at 1.24.

As for U7G U11C C12G, the “aptazyme ON/OFF ratio” value worked out at 1.26.

Take U7G U11C C12U: the “aptazyme ON/OFF ratio” value turned out to be 1.27.

Take U7G U11C C12A: the “aptazyme ON/OFF ratio” value worked out at 1.21.

For the variant U7G U11A C12G C13U, the “aptazyme ON/OFF ratio” value came out at 1.12.

U7G U11A C12G C13G: the “aptazyme ON/OFF ratio” value was 1.11.

As for U7G U11A C12G C13A, the “aptazyme ON/OFF ratio” value stood at 1.08.

Turning to U7G U10A U11G C13U, the “aptazyme ON/OFF ratio” value turned out to be 1.22.

On to U7G U10A U11G C13A, for which the “aptazyme ON/OFF ratio” value came out at 1.16.

Turning to U7G U10A U11G C13G, the “aptazyme ON/OFF ratio” value is 1.14.

Regarding U7G U10G C12A C13G, the “aptazyme ON/OFF ratio” value stood at 1.11.

In the case of U7G U10G C12A C13U, the “aptazyme ON/OFF ratio” value is 1.34.

Take U7G U10G C12A C13A: the “aptazyme ON/OFF ratio” value was 1.09.

In the case of U8A G9A U10A C12A C13G, the “aptazyme ON/OFF ratio” value was 1.17.

U8A G9A U10A C12A C13A: the “aptazyme ON/OFF ratio” value is 1.17.

On to U8A G9A U10A C12A C13U, for which the “aptazyme ON/OFF ratio” value came out at 1.39.

Take U8A G9A C12A C13A: the “aptazyme ON/OFF ratio” value was found to be 1.3.

On to U8A G9A C12A C13G, for which the “aptazyme ON/OFF ratio” value worked out at 1.1.

Turning to U8A G9A C12A C13U, the “aptazyme ON/OFF ratio” value came to 1.19.

On to U8A C12U C13A, for which the “aptazyme ON/OFF ratio” value is 1.28.

U8A C12U C13G: the “aptazyme ON/OFF ratio” value was 1.35.

On to U8A C12U C13U, for which the “aptazyme ON/OFF ratio” value was 1.38.

In the case of U7G U8G U11C C12G C13G, the “aptazyme ON/OFF ratio” value is 1.23.

On to U7G U8G U11C C12G C13U, for which the “aptazyme ON/OFF ratio” value came out at 1.33.

U7G U8G U11C C12G C13A: the “aptazyme ON/OFF ratio” value came to 1.33.

With U7G U11G C13A, the “aptazyme ON/OFF ratio” value worked out at 1.06.

On to U7G U11G C13U, for which the “aptazyme ON/OFF ratio” value amounted to 1.1.

On to U7G U11G C13G, for which the “aptazyme ON/OFF ratio” value amounted to 1.08.

With U8A C13U, the “aptazyme ON/OFF ratio” value turned out to be 1.43.

With U8A C13A, the “aptazyme ON/OFF ratio” value came out at 1.24.
